Sequences and labels used below:
B1: FBXO3 (parent)
chain: HDPLWRRHCKKYWLISEEEKTQKN
B2: USP39 (parent)
chain: FQGSMRIFTKKLPHPDLPAEEKEQ
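Also: lentivirally expressed fusions sorted by FACS into six bins by GFP to DsRed ratio, PSI derived from sequencing read proportions per bin multiplied by bin number.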

The first data set covers variants of B1. Nature of the data set: protein stability index of a GFP-peptide fusion (GPS, HEK-293T) (PSI 1-6); higher = more stable. The settings on record: c terminus: a fixed tail appended.
In the case of HDPLWRRSCKKYWLISEEEKTQKN, the protein stability index is 2.73.

As to NDPLWRRHCKKYWLISEEEKTQKN, the protein stability index stood at 3.38.

Take LDPLWRRHCKKYWLISEEEKTQKN: the protein stability index was found to be 3.85.

For WDPLWRRHCKKYWLISEEEKTQKN, the protein stability index turned out to be 2.15.

As for YDPLWRRHCKKYWLISEEEKTQKN, the protein stability index was 2.12.

Consider RDPLWRRHCKKYWLISEEEKTQKN, for which the protein stability index is 2.8.

With EDPLWRRHCKKYWLISEEEKTQKN, the protein stability index came to 3.84.

As to PDPLWRRHCKKYWLISEEEKTQKN, the protein stability index turned out to be 3.74.

Turning to FDPLWRRHCKKYWLISEEEKTQKN, the protein stability index stood at 2.34.

On to IDPLWRRHCKKYWLISEEEKTQKN, for which the protein stability index was 2.06.

Turning to SDPLWRRHCKKYWLISEEEKTQKN, the protein stability index was found to be 3.62.

With QDPLWRRHCKKYWLISEEEKTQKN, the protein stability index is 3.13.

With MDPLWRRHCKKYWLISEEEKTQKN, the protein stability index is 3.32.

Consider VDPLWRRHCKKYWLISEEEKTQKN, for which the protein stability index was 3.38.

On to CDPLWRRHCKKYWLISEEEKTQKN, for which the protein stability index turned out to be 3.53.

Consider GDPLWRRHCKKYWLISEEEKTQKN, for which the protein stability index worked out at 3.29.

Turning to TDPLWRRHCKKYWLISEEEKTQKN, the protein stability index came to 3.66.

For DDPLWRRHCKKYWLISEEEKTQKN, the protein stability index worked out at 4.12.

Regarding KDPLWRRHCKKYWLISEEEKTQKN, the protein stability index is 3.21.

Regarding ADPLWRRHCKKYWLISEEEKTQKN, the protein stability index came to 3.78.

HDRLWRRHCKKYWLISEEEKTQKN: the protein stability index was 2.91.

As for HDMLWRRHCKKYWLISEEEKTQKN, the protein stability index was found to be 3.33.

HDILWRRHCKKYWLISEEEKTQKN: the protein stability index amounted to 3.08.

For HDFLWRRHCKKYWLISEEEKTQKN, the protein stability index was determined as 2.41.

For the variant HDHLWRRHCKKYWLISEEEKTQKN, the protein stability index came out at 2.97.

As to HDKLWRRHCKKYWLISEEEKTQKN, the protein stability index came to 3.03.

Take HDVLWRRHCKKYWLISEEEKTQKN: the protein stability index was 3.84.

For HDCLWRRHCKKYWLISEEEKTQKN, the protein stability index is 3.02.

Regarding HDSLWRRHCKKYWLISEEEKTQKN, the protein stability index was determined as 3.38.

As for HDTLWRRHCKKYWLISEEEKTQKN, the protein stability index was found to be 3.84.

HDQLWRRHCKKYWLISEEEKTQKN: the protein stability index amounted to 3.5.

HDWLWRRHCKKYWLISEEEKTQKN: the protein stability index amounted to 2.44.

On to HDDLWRRHCKKYWLISEEEKTQKN, for which the protein stability index worked out at 3.33.

Turning to HDALWRRHCKKYWLISEEEKTQKN, the protein stability index was 3.58.

With HDNLWRRHCKKYWLISEEEKTQKN, the protein stability index amounted to 3.49.

Consider HDELWRRHCKKYWLISEEEKTQKN, for which the protein stability index was found to be 3.45.

Regarding HDLLWRRHCKKYWLISEEEKTQKN, the protein stability index stood at 3.12.

For the variant HDGLWRRHCKKYWLISEEEKTQKN, the protein stability index turned out to be 3.1.

With HDYLWRRHCKKYWLISEEEKTQKN, the protein stability index came to 2.75.

For the variant HHPLWRRHCKKYWLISEEEKTQKN, the protein stability index amounted to 2.18.

For the variant HLPLWRRHCKKYWLISEEEKTQKN, the protein stability index was 2.24.

As to HEPLWRRHCKKYWLISEEEKTQKN, the protein stability index worked out at 2.62.

For the variant HTPLWRRHCKKYWLISEEEKTQKN, the protein stability index is 1.87.

For the variant HMPLWRRHCKKYWLISEEEKTQKN, the protein stability index was 2.63.

On to HIPLWRRHCKKYWLISEEEKTQKN, for which the protein stability index turned out to be 2.25.

HFPLWRRHCKKYWLISEEEKTQKN: the protein stability index was 2.33.

As to HWPLWRRHCKKYWLISEEEKTQKN, the protein stability index was found to be 1.97.

For HRPLWRRHCKKYWLISEEEKTQKN, the protein stability index came to 2.86.

With HKPLWRRHCKKYWLISEEEKTQKN, the protein stability index worked out at 2.58.

HQPLWRRHCKKYWLISEEEKTQKN: the protein stability index turned out to be 2.91.

For the variant HPPLWRRHCKKYWLISEEEKTQKN, the protein stability index was determined as 3.13.

Regarding HGPLWRRHCKKYWLISEEEKTQKN, the protein stability index was determined as 1.62.

Regarding HSPLWRRHCKKYWLISEEEKTQKN, the protein stability index was 1.81.

For the variant HCPLWRRHCKKYWLISEEEKTQKN, the protein stability index was 2.26.

Regarding HYPLWRRHCKKYWLISEEEKTQKN, the protein stability index was found to be 2.56.

For the variant HAPLWRRHCKKYWLISEEEKTQKN, the protein stability index was 2.58.

With HNPLWRRHCKKYWLISEEEKTQKN, the protein stability index was 2.78.

Turning to HVPLWRRHCKKYWLISEEEKTQKN, the protein stability index came out at 1.97.

On to HDPLWRRHDKKYWLISEEEKTQKN, for which the protein stability index stood at 4.83.

On to HDPLWRRHAKKYWLISEEEKTQKN, for which the protein stability index is 3.57.

In a further data set the parent is B2. Described as above. The settings on record: c terminus: a fixed tail appended.
For FQGSMRIFTKKLPHPDLPAEEKFQ, the protein stability index came out at 1.38.

With FNGSMRIFTKKLPHPDLPAEEKEQ, the protein stability index was 2.85.

For FEGSMRIFTKKLPHPDLPAEEKEQ, the protein stability index turned out to be 4.12.

On to FQGSMRIFTKKLPHPDLPNEEKEQ, for which the protein stability index is 1.79.

Regarding FQGSMLIFTKKLPHPDLPAEEKEQ, the protein stability index turned out to be 2.31.

With FQGSMQIFTKKLPHPDLPAEEKEQ, the protein stability index is 2.22.

As for FQGSMYIFTKKLPHPDLPAEEKEQ, the protein stability index is 2.24.

Turning to FQGSMRIFHKKLPHPDLPAEEKEQ, the protein stability index turned out to be 2.

Consider FQGSTRIFTKKLPHPDLPAEEKEQ, for which the protein stability index turned out to be 1.61.

As for FQGSFRIFTKKLPHPDLPAEEKEQ, the protein stability index was found to be 1.89.

As to FQGTMRIFTKKLPHPDLPAEEKEQ, the protein stability index came to 1.98.

In the case of FQGIMRIFTKKLPHPDLPAEEKEQ, the protein stability index was 2.27.

In the case of FQGSMRIFTKKLPHPDLQAEEKEQ, the protein stability index came to 2.15.

As for FQGSMRIFTKKLPHPDLFAEEKEQ, the protein stability index stood at 2.11.

FQGSMRIFTKKLPHPDLPASEKEQ: the protein stability index turned out to be 2.16.

For the variant FQGSMRIFTKKLPHPDLPACEKEQ, the protein stability index is 2.12.

With FQGSMRINTKKLPHPDLPAEEKEQ, the protein stability index amounted to 3.68.

Take FQGSMRIETKKLPHPDLPAEEKEQ: the protein stability index was determined as 4.01.

As to FQGSMRISTKKLPHPDLPAEEKEQ, the protein stability index came to 3.29.

On to RQGSMRIFTKKLPHPDLPAEEKEQ, for which the protein stability index is 4.95.

In the case of FQGSMRIFTKKLPCPDLPAEEKEQ, the protein stability index turned out to be 2.27.

On to FQGSMRIFTKKLPHPDLPAEHKEQ, for which the protein stability index was 2.25.

FQGSMRIFTKALPHPDLPAEEKEQ: the protein stability index was determined as 1.68.

On to FQGSMRIFTKILPHPDLPAEEKEQ, for which the protein stability index was 1.87.

On to FQGSMRIFTKGLPHPDLPAEEKEQ, for which the protein stability index is 1.94.

Turning to FQGSMRIFTKKLPHQDLPAEEKEQ, the protein stability index was 1.74.

For the variant FQGSMRIFTKKLPHSDLPAEEKEQ, the protein stability index came to 1.94.

As to FQGSMRIFTKKLPHPDLPAEESEQ, the protein stability index was determined as 1.88.

Turning to FQGSMRMFTKKLPHPDLPAEEKEQ, the protein stability index was 2.44.

FQGSMRIFTKKLPHPRLPAEEKEQ: the protein stability index came to 2.17.

On to FQVSMRIFTKKLPHPDLPAEEKEQ, for which the protein stability index turned out to be 2.01.

On to FQPSMRIFTKKLPHPDLPAEEKEQ, for which the protein stability index worked out at 2.53.

Take FQGSMRIFTKKLKHPDLPAEEKEQ: the protein stability index amounted to 2.15.

For FQGSMRIFTRKLPHPDLPAEEKEQ, the protein stability index is 1.61.

Values taken from the supplement of paper PMC10567573.
